Data: the RNAGym collection of RNA variant scans (doi:10.1101/gr.219683.116)

B1: mRNA-splicing (parent)
chain: AGUUGCUGCUGGGAGCUCCAGCACAGUGAAAUGGACAGAAGGGCAGAGCAA

Variants of: B1
Test: exon inclusion enrichment index; higher = more inclusion; WT1 exon 5 minigene, HEK293

Variant	exon inclusion enrichment index
AGUUCUUCUCGGGAGCUCCAGCACAGUGAAAUGGACAGCAGGGCAGAGCAA	0.436
AGUUGACGACGGGAGCUCCAGCACAGUGAAAUGGACAGAAGGGCAGAUCAA	3.83
AGUUAGGGAUGGGAGCUCCAGCACAGUGAAAUGGACAGAAGGGCUUAGCAA	0.000766
AGUUGACGACCGGAGCUCCAGCACAGUGAAAUGGACAGAAGGGCAGAGCAA	3.61
AGCGCUUCUCGGGAGCUCCAGCACAGUGAAAUGGACAGAAGGGCAGAGCAA	1.28
AGUUAUAUAUGGGAGCUCCAGCACAGUGAAGCGGACAGAAGGGCAGAGCAA	0.424
AGUUGCUGCUGGGAGCUCCAGCACAGUGAAAUGGCCAGAAGGGCAGAGCAA	0.041
AGUUGAAGGAGGGAGCUCCAGCACAGUGAAAUGGACAGAAGGGCAGAGCAA	0.286
AGUUACCACCGGGAGCUCCAGCAUAGUGAAAUGGACAGAAGGGCAGAGCAA	0.763
AGUUAGGCAUGGGAGCUCCAGCACAGUGAAAUGGACAGAAGGGCAGAGCAA	0.0086
AGUUUCUUUUGGGAGCUCCAGCACAGUGAACAGGACAGAAGGGCAGAGCAA	0.077
AGUUCGCGCCGGGAGCAGCAGCACAGUGAAAUGGACAGAAGGGCAGAGCAA	4.2
AGUUCUUCUCGGGAGCUCCAGGACAGUGAAAUGGACAGAAGGGCAGAGCAA	2.51
AGGCCUUCUCGGGAGCUCCAGCACAGUGAAAUGGACAGAAGGGCAGAGCAA	1.03
AGUUGCUGCUGGGAGCUCCAGCACAGUGAAAUCUACAGAAGGGCAGAGCAA	0.0871
AGUUUCUUUUUUGAGCUCCAGCACAGUGAAAUGGACAGAAGGGCAGAGCAA	0.00578
AGUUACCACCGGGAGCUCCAGCACAGUGAAAUGGACAAAAGGGCAGAGCAA	1.25
AGUUCGCGCCGGGAGCACCAGCACAGUGAAAUGGACAGAAGGGCAGAGCAA	3.8
AGUUCACACAGGGAGCUCCAGCACAGUGAAAUGGACAGAAGGGCAACGCAA	0.439
AGUUCUUCUCGGGAGCUCGAGCACAGUGAAAUGGACAGAAGGGCAGAGCAA	1.61
AGUUUCUUUUGGGAGCUCCAGCACAGUGAAAUGGUCAGAAGGGCAGAGCAA	0.0145
AGUUGAAGAAGGGAGCUCCAGCACAGUGAGGUGGACAGAAGGGCAGAGCAA	0.168
AGUUGUUGAAGGGAGCUCCAGCACAGUGAAAUGGACAGAAGGGCAGAGCAA	0.198
AGUUUCUUCCGGGAGCUCCAGCACAGUGAAAUGGACAGAAGGGCAGAGCAA	1.8
AGUUCUUCUCGGGAGCUCCAGCACAGUGAAAUGGACAGAAGGGCAGACCAA	2.43
AGUUGCUGCUGUCAGCUCCAGCACAGUGAAAUGGACAGAAGGGCAGAGCAA	0.721

Variant	exon inclusion enrichment index
AGUUGCUGCUGGGAGCUCCAGCACAGUGAAAUGGAGAGAAGGGCAGAGCAA	0.0745
AGUUUCUUUUGGGAGCUCCAGCACAGUGAAAUGGACACGAGGGCAGAGCAA	0.136
AGUUGCUGCUGGGAGCUCCAGCACAGUCAAAUGGACAGAAGGGCAGAGCAA	0.104
AGUUCUUCUCGGGAGCUUGAGCACAGUGAAAUGGACAGAAGGGCAGAGCAA	0.675
AGUUGAAUCAGGGAGCUCCAGCACAGUGAAAUGGACAGAAGGGCAGAGCAA	0.0805
AGUUGAAGAAGGGUCCUCCAGCACAGUGAAAUGGACAGAAGGGCAGAGCAA	0.336
AGUUGAAGAAGGGAGCUCCAGCACAGUGAAAUGGACACAAGGGCAGAGCAA	0.524
AGUUCGCGCCGGGAGCUCCAGCACGUUGAAAUGGACAGAAGGGCAGAGCAA	4.09
AGUUCUUCUCGGGAGCUCCAGCACAGUAAAAUGGACAGAAGGGCAGAGCAA	0.598
AGUUCACACAGGGAGCUCCAGCACAGUGAAAUGGACAGAAGGCGAGAGCAA	1.22
AGAUAGGGAUGGGAGCUCCAGCACAGUGAAAUGGACAGAAGGGCAGAGCAA	0.0155
AGUUAGCGCCGGGAGCUCCAGCACAGUGAAAUGGACAGAAGGGCAGAGCAA	0.952
AGUUCUUCUCGGGAGCUCCAAUACAGUGAAAUGGACAGAAGGGCAGAGCAA	0.846
AGUUGACGACGGGUUCUCCAGCACAGUGAAAUGGACAGAAGGGCAGAGCAA	2.08
AGUUCUUCUCGGGAGCUCCAGCACAGUGAAUCGGACAGAAGGGCAGAGCAA	2.61
AGUUAUAUAUGGGAGCUCCAGGACAGUGAAAUGGACAGAAGGGCAGAGCAA	0.0616
AGUUACCACCAAGAGCUCCAGCACAGUGAAAUGGACAGAAGGGCAGAGCAA	0.934
AGUUCGCGCCGGGAGCUCCAGCACAGUGAAAUGGACAGAGGGGCAGAGCAA	3.16
AGUUCGCGCCGGGAGCUCCAGACCAGUGAAAUGGACAGAAGGGCAGAGCAA	3.98
AGUUGCUGCUGGGAGCUCCAGCCCAGUGAAAUGGACAGAAGGGCAGAGCAA	0.646
AGUUUCUUUUGGGAGCUCCAGCACAGUGAAAUGGACAGAAGGCAAGAGCAA	0.722
AGUUAUAUAUGGGAGCUCCAGCACAGUGAAAUGGACAGAAGGAGAGAGCAA	0.476
AGUUUCUUUUGGGAGCUCCAGCACAGUGAAAGCGACAGAAGGGCAGAGCAA	0.0926
AUCUCUUCUCGGGAGCUCCAGCACAGUGAAAUGGACAGAAGGGCAGAGCAA	3.63
AGUUCUUCUCGGGAGCUCCAGCACAGUGAAAUGGACAGAACAGCAGAGCAA	2
